Results on one molecule are retold here after article PMC8980629, “c-Abl kinase-mediated phosphorylation of γ-tubulin promotes γ-tubulin ring complexes assembly and microtubule nucleation” (The Journal of Biological Chemistry, 2022).

In this assay the target is T1, Flag-γ-tubulin (human, UniProt P23258 1-451).
T1 construct: γ-tubulin (tubg1), full-length cDNA amplified from an MCF-7 cDNA library, in a pcDNA3.0-based vector; also called wild-type Flag-γ-tubulin; source: HEK293T, transfected, in lysate; anti-Flag immunoprecipitated and resolved by SDS-PAGE for the far-Western; not shown: Flag, N-terminal, kept
In words: far-Western, overlay or dot blot; anti-Flag immunoprecipitates from HEK293T resolved by SDS-PAGE and blotted onto PVDF; membrane incubated with purified GST or GST fusion protein 2 h at room temperature; probed with anti-GST. The settings on record: both partners purified.

T1 sequence (P23258 whole entry): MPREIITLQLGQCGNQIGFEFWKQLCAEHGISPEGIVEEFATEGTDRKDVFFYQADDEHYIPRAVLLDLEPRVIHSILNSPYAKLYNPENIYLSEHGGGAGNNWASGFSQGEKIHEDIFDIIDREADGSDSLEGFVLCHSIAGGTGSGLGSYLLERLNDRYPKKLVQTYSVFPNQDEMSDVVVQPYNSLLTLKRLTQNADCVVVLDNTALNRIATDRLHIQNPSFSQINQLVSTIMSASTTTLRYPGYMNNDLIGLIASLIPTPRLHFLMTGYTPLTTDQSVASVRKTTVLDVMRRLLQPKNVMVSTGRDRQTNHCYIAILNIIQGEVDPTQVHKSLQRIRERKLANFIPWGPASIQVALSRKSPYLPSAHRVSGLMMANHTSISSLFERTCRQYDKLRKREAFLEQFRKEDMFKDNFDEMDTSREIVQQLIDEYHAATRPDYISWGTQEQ

B1: GST-c-Abl SH2 (domain or fragment, UniProt P00519 127-217, looked up)
chain: WYHGPVSRNAAEYLLSSGINGSFLVRESESSPGQRSISLRYEGRVYHYRINTASDGKLYVSSESRFNTLAELVHHHSTVADGLITTLHYPA
notes: SH2 domain of c-Abl; source: purified GST fusion protein; not shown: GST, N-terminal, kept
Consider B1, for which the binding result was “binds”.
